From patent US12139520B2 (priority 2020, dated 2024)
Bridge positions count the residues as written; N and C are the ends. Square brackets hold non-standard residues; d marks the D form. Ends that are not written are not given here. Hyp = O=C(O)[C@@H]1C[C@@H](O)CN1; Cit = NC(=O)NCCC[C@H](N)C(=O)O

T1: hAMY3R (human, UniProt P30988)
T1 sequence 1: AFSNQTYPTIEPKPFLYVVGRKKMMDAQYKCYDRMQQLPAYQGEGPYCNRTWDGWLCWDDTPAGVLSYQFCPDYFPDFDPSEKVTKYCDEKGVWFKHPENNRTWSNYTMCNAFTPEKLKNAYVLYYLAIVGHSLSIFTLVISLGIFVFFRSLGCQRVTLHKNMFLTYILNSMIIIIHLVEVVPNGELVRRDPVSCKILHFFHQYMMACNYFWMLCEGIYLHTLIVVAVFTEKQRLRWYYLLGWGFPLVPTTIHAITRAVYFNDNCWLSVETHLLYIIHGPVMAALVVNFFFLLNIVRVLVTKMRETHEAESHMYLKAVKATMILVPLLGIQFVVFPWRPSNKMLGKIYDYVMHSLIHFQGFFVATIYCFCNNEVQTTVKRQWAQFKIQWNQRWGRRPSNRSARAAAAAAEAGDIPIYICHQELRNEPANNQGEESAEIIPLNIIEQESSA
T1 sequence 2: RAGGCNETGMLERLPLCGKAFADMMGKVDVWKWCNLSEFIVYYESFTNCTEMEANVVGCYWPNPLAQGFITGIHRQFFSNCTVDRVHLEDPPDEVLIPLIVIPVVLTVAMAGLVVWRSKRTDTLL

B1: SEQ ID NO: 292 (peptide)
peptide: GCRTGTCTVQ[Cit]LAHQIYQFTDKDKDNVAPRTKVGPQG[Hyp]-NH2
modifications: disulfide 2-7 (inferred); ends not checked
B2: SEQ ID NO: 284 (peptide)
peptide: GCRFGTCTVQ[Cit]LAHQIYQFTDKDKDNVAPRSKIGPQG[Hyp]-NH2
modifications: disulfide 2-7 (inferred); ends not checked
B3: SEQ ID NO: 304 (peptide)
peptide: GCRTGTCTVQ[Cit]LAHQIYQFTDKDKDNVAPRSNVSPNG[Hyp]-NH2
modifications: disulfide 2-7 (inferred); ends not checked
B4: SEQ ID NO: 281 (peptide)
peptide: GCRTGTCTVQ[Cit]LAHQIYQFTDKDKDNVAPRSNVGPQG[Hyp]-NH2
modifications: disulfide 2-7 (inferred); ends not checked
B5: SEQ ID NO: 305 (peptide)
peptide: GCRFGTCTVQ[Cit]LAHQIYQFTDKDKDNVAPRSKVSPQG[Hyp]-NH2
modifications: disulfide 2-7 (inferred); ends not checked
B6: SEQ ID NO: 295 (peptide)
peptide: GCRIGTCTVQ[Cit]LAHQIYQFTDKFKDNVAPRSKISPQT[Hyp]-NH2
modifications: disulfide 2-7 (inferred); ends not checked
B7: SEQ ID NO: 303 (peptide)
peptide: GCRTGTCTVQ[Cit]LAHQIYQFTDKDKDNVAPRSNIGPQG[Hyp]-NH2
modifications: disulfide 2-7 (inferred); ends not checked
B8: SEQ ID NO: 280 (peptide)
peptide: GCRTGTCTVQ[Cit]LAHQIYQFTDKDKDNVAPRTNIGPQG[Hyp]-NH2
modifications: disulfide 2-7 (inferred); ends not checked
B9: SEQ ID NO: 300 (peptide)
peptide: GCRFGTCTVQ[Cit]LAHQIYQFTDKDKDNVAPRSNISPQG[Hyp]-NH2
modifications: disulfide 2-7 (inferred); ends not checked
B10: SEQ ID NO: 298 (peptide)
peptide: GCRTGTCTVQ[Cit]LAHQIYQFTDKDKDNVAPRTKVGPQGY-NH2
modifications: disulfide 2-7 (inferred); ends not checked
B11: SEQ ID NO: 290 (peptide)
peptide: GCRTGTCTVQ[Cit]LAHQIYQFTDKDKDNVAPRSKVGPNG[Hyp]-NH2
modifications: disulfide 2-7 (inferred); ends not checked
B12: SEQ ID NO: 277 (peptide)
peptide: GCRTGTCTVQ[Cit]LAHQIYQFTDKDKDNVAPRTKIGPNG[Hyp]-NH2
modifications: disulfide 2-7 (inferred); ends not checked
B13: SEQ ID NO: 299 (peptide)
peptide: GCRTGTCTVQ[Cit]LAHQIYQFTDKDKDNVAPRSKIGPNG[Hyp]-NH2
modifications: disulfide 2-7 (inferred); ends not checked
B14: SEQ ID NO: 296 (peptide)
peptide: GCRWGTCTVQ[Cit]LAHQIYQFTDKDKDNVAPRSKISPQT[Hyp]-NH2
modifications: disulfide 2-7 (inferred); ends not checked
B15: SEQ ID NO: 282 (peptide)
peptide: GCRFGTCTVQ[Cit]LAHFLYQFTDKDGAIAPRTKIGSQGY-NH2
modifications: disulfide 2-7 (inferred); ends not checked
B16: SEQ ID NO: 302 (peptide)
peptide: GCRTGTCTVQ[Cit]LAHQIYQFTDKDKDNVAPRTNVSPNG[Hyp]-NH2
modifications: disulfide 2-7 (inferred); ends not checked
B17: SEQ ID NO: 291 (peptide)
peptide: GCRFGTCTVQ[Cit]LAHQIYQFTDKDKDNVAPRTNISPQG[Hyp]-NH2
modifications: disulfide 2-7 (inferred); ends not checked
B18: SEQ ID NO: 287 (peptide)
peptide: GCRFGTCTVQ[Cit]LAHQIYQFTDKDKDNVAPRTKVSPQG[Hyp]-NH2
modifications: disulfide 2-7 (inferred); ends not checked
B19: SEQ ID NO: 31 (peptide)
peptide: KCNTATCTVQRLAHQIYQFTDKDKDNVAPTNVGSNG[Hyp]-NH2
modifications: disulfide 2-7 (inferred); ends not checked
B20: SEQ ID NO: 297 (peptide)
peptide: GCRTGTCTVQ[Cit]LAHQIYQFTDKDKDNVAPRSNIGPNG[Hyp]-NH2
modifications: disulfide 2-7 (inferred); ends not checked
B21: SEQ ID NO: 285 (peptide)
peptide: GCRTGTCTVQ[Cit]LAHQIYQFTDKDKDNVAPRSKVGPQGY-NH2
modifications: disulfide 2-7 (inferred); ends not checked
B22: SEQ ID NO: 301 (peptide)
peptide: GCRTGTCTVQ[Cit]LAHQIYQFTDKDKDNVAPRTKIGPQG[Hyp]-NH2
modifications: disulfide 2-7 (inferred); ends not checked
B23: SEQ ID NO: 279 (peptide)
peptide: GCRFGTCTVQ[Cit]LAHFLYQFTDKDKDNVAPRTKVGSNGY-NH2
modifications: disulfide 2-7 (inferred); ends not checked
B24: SEQ ID NO: 278 (peptide)
peptide: GCRFGTCTVQ[Cit]LAHQIYQFTDKDKDNVAPRTNVSPQGY-NH2
modifications: disulfide 2-7 (inferred); ends not checked
B25: SEQ ID NO: 30 (peptide)
peptide: KCNTATCTVQRLAHQIYQFTDKDKDNVPPTNVGSNG[Hyp]-NH2
modifications: disulfide 2-7 (inferred); not fully specified; ends not checked
B26: SEQ ID NO: 288 (peptide)
peptide: GCRFGTCTVQ[Cit]LAHQIYQFTDKDKDNVAPRTKVSPNG[Hyp]-NH2
modifications: disulfide 2-7 (inferred); ends not checked
B27: SEQ ID NO: 289 (peptide)
peptide: GCRFGTCTVQ[Cit]LAHQIYQFTDKDKDNVAPRSNVGPQG[Hyp]-NH2
modifications: disulfide 2-7 (inferred); ends not checked
B28: SEQ ID NO: 286 (peptide)
peptide: GCRFGTCTVQ[Cit]LAHQIYQFTDKDKDNVAPRSNVSPQGY-NH2
modifications: disulfide 2-7 (inferred); ends not checked
B29: SEQ ID NO: 283 (peptide)
peptide: GCRFGTCTVQ[Cit]LAHQIYQFTDKDKDNVAPRTNVSPQG[Hyp]-NH2
modifications: disulfide 2-7 (inferred); ends not checked
B30: SEQ ID NO: 29 (peptide)
peptide: KCNTATCTVQRLAHQIYQFTKDKDNVAPPTNVGSNG[Hyp]-NH2
modifications: disulfide 2-7 (inferred); not fully specified; ends not checked
B31: SEQ ID NO: 294 (peptide)
peptide: GCRFGTCTVQ[Cit]LAHQIYQFTDKDKDNVAPRTKISPQG[Hyp]-NH2
modifications: disulfide 2-7 (inferred); ends not checked
B32: SEQ ID NO: 293 (peptide)
peptide: GCRFGTCTVQ[Cit]LAHQIYQFTDKDKDNVAPRSNVSPQG[Hyp]-NH2
modifications: disulfide 2-7 (inferred); ends not checked

Legend:
[1] = target: hAM1R (human, UniProt Q16602); assay: cell-based or functional assay
[2] = target: T1, hAMY3R; assay: cell-based or functional assay

Row | Binder | hAM1R EC50 (cAMP) [1] | hAMY3R EC50 (cAMP) [2]
1 | B1 | > 5 µM | 0.07 nM
2 | B2 | 0.591 µM | 0.028 nM
3 | B3 | > 5 µM | 0.139 nM
4 | B4 | > 5 µM | 0.034 nM
5 | B5 | > 5 µM | 0.085 nM
6 | B6 | > 5 µM | 0.194 nM
7 | B7 | > 5 µM | 0.103 nM
8 | B8 | > 5 µM | 0.024 nM
9 | B9 | > 5 µM | 0.076 nM
10 | B10 | > 5 µM | 0.057 nM
11 | B11 | > 5 µM | 0.047 nM
12 | B12 | > 5 µM | 0.058 nM
13 | B13 | > 5 µM | 0.11 nM
14 | B14 | > 5 µM | 0.392 nM
15 | B15 | 3.88 µM | 0.143 nM
16 | B16 | 4.33 µM | 0.071 nM

Row | Binder | hAM1R EC50 (cAMP) [1] | hAMY3R EC50 (cAMP) [2]
17 | B17 | > 5 µM | 0.064 nM
18 | B18 | > 5 µM | 0.055 nM
19 | B19 | > 5 µM | 0.008 nM
20 | B20 | > 5 µM | 0.026 nM
21 | B21 | > 5 µM | 0.157 nM
22 | B22 | > 5 µM | 0.138 nM
23 | B23 | 0.241 µM | 0.013 nM
24 | B24 | 0.155 µM | 0.011 nM
25 | B25 | > 5 µM | 0.008 nM
26 | B26 | > 5 µM | 0.03 nM
27 | B27 | 3.5 µM | 0.005 nM
28 | B28 | 0.139 µM | 0.025 nM
29 | B29 | > 5 µM | 0.035 nM
30 | B30 | > 5 µM | 0.008 nM
31 | B31 | > 5 µM | 0.045 nM
32 | B32 | > 5 µM | 0.063 nM
